From patent US20090155236A1, “Peptide sequence for modulation of delta protein kinase c” (NATIONAL INSTITUES OF HEALTH (NIH), U.S. DEPT OF HEALTH AND …, priority 2004, published 2009)

Tests used:
[1] = target: T1, delta PKC-annexin V complex (Cricetulus griseus, UniProt A0A8C2N0P5+G3I5A4); experiment: Dissociation of delta PKC-annexin V complex in CHO cells; format: cell-based; conditions: CHO cells pretreated with the agent, then 10 nM PMA, FIG. 7
T1 construct: endogenous in cells; host or cells: CHO cells
T1 sequence (A0A8C2N0P5 1-676): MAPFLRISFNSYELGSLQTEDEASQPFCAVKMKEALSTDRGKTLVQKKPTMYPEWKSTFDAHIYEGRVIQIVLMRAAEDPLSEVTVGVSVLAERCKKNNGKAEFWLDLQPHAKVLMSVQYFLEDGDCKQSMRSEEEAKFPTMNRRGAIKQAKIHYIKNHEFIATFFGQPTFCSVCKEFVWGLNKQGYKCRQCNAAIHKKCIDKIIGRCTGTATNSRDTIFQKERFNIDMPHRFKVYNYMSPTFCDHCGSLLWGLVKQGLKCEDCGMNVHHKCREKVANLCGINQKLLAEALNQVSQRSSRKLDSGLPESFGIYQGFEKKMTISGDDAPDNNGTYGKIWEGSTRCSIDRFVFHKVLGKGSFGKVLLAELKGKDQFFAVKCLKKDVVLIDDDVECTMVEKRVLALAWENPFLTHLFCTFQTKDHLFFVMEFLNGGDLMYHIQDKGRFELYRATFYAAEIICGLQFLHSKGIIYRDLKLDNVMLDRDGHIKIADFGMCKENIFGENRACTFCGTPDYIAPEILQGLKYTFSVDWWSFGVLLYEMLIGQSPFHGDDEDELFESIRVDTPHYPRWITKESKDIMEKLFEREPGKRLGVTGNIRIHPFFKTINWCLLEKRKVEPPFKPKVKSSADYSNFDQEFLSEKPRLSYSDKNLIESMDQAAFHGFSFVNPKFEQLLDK
T1 sequence (G3I5A4 1-321): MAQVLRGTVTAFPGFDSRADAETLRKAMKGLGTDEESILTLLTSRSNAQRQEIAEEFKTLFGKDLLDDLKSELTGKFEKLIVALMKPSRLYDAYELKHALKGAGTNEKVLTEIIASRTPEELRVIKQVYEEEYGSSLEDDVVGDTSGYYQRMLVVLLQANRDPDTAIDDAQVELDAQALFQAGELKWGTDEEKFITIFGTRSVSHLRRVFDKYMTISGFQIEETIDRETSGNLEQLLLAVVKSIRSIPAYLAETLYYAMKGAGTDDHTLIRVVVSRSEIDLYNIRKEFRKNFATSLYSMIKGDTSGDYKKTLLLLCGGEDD
Method: To determine the requirements for complex disassociation and subsequent translocation, PMA-induced formation of the delta PKC-annexin V complex was conducted under energetically limiting conditions caused by ATP depletion using 2-deoxyglucose (Kondo, T. et al., J. Lab. Clin. Med., 94:617-23 (1979)), and with cytoskeletal perturbations by pretreatment with actin […] agent cytochalasin D or microtubule-destabilizing agent nocodazole.
CHO cells were pretreated with one of the following: (1) 2-deoxyglucose (20 mM) for 4 hours in a glucose-free buffer; (2) nocodazole (10 μM) for 2 hours; or (3) cytochalasin D (2 μM) for 1 hour. The cells were then treated with phorbol myristate acetate (PMA; 10 nM) for times of between 30 seconds to 5 minutes. After the lapsed time, the cells were washed with cold PBS, and homogenized on ice with trituration in homogenization buffer (20 mM Tris pH 7.4, 2 mM EDTA, 10 mM EGTA, 0.25M sucrose, 12 mM β-mercaptoethanol, and protease inhibitor cocktail (Sigma), 0.1% formaldehyde. After 30 min at 4° C., the lysates were quenched with 0.14M glycine for 20 min at 4° C., and samples spun at 14K rpm at 4° C. The supernatant was incubated with 1 μg anti-delta PKC antibody (Santa Cruz Biotechnology, Inc., Santa Cruz, Calif.) for 1 hour, then with proteinG beads (Invitrogen Corporation) for 3 hours at 4° C. The beads where then washed with wash buffer (20 mM Tris pH 7.5, 2 mM EDTA, 100 mM NaCl, 12 mM β-mercaptoethanol, 0.1% Triton), and separated on 7.5% SDS-PAGE, transferred to nitrocellulose, and probed with anti-annexin V (Santa Cruz Biotechnology, Inc., Santa Cruz, Calif.), followed by visualization by ECL Western blotting.

[2] = target: T2, annexin V and delta PKC interaction (Homo sapiens, UniProt Q05655); experiment: Cross-linking immuno-precipitation of delta PKC probed with anti-annexin V in cardiac myocytes; format: cell-based
T2 construct: endogenous in cells; host or cells: cardiomyocytes
T2 sequence (Q05655 whole entry): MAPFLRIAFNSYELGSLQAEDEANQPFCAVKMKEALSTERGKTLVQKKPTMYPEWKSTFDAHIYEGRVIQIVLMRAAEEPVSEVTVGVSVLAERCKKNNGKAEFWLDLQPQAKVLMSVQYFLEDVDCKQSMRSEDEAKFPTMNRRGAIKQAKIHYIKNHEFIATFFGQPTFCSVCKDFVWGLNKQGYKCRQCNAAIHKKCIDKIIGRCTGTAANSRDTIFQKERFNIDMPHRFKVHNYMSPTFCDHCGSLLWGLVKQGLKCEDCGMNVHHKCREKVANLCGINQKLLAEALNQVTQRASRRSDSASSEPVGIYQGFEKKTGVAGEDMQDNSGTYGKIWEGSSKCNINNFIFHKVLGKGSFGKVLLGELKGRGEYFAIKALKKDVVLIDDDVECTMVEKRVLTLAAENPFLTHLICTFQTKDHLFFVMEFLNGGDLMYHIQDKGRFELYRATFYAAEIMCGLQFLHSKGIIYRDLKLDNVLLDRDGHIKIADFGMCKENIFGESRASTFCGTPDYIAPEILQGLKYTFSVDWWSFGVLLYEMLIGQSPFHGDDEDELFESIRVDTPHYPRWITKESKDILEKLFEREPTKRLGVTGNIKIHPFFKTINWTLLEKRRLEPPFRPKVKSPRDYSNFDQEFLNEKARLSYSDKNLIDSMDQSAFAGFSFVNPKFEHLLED
Method: Example 4 describes a study where cardiac myocytes were stimulated with a selected agent and then immuno-precipitated with anti-delta PKC after cross-linking. The cell lysates were then probed with anti-annexin V and visualized with ECL Western blotting. […] The stimulation agent was applied to the cells for times of between 30 seconds to 20 minutes, prior to lysing.
Cardiomyocytes were treated with phorbol 12-myristate 13-acetate (PMA; 10 nM), hydrogen peroxide (H2O2; 5 mM), JTV-519, or delta V1-1 peptide (1 μM) and JTV-519 (1 μM), for times of between 30 seconds to 5 minutes. After the lapsed time, the cells were washed with cold PBS, and homogenized on ice with trituration in homogenization buffer (20 mM Tris pH 7.4, 2 mM EDTA, 10 mM EGTA, 0.25M sucrose, 12 mM O-mercaptoethanol, and protease inhibitor cocktail (Sigma), 0.1% formaldehyde. After 30 min at 4° C., the lysates were quenched with 0.14M glycine for 20 min at 4° C., and samples spun at 14K rpm at 4° C. The supernatant was incubated with 1 μg anti-delta PKC antibody (Santa Cruz Biotechnology, Inc., Santa Cruz, Calif.) for 1 hour, then with proteinG beads (Invitrogen Corporation) for 3 hours at 4° C. The beads where then washed with wash buffer (20 mM Tris pH 7.5, 2 mM EDTA, 100 mM NaCl, 12 mM β-mercaptoethanol, 0.1% Triton), and separated on 7.5% SDS-PAGE, transferred to nitrocellulose, and probed with anti-annexin V (Santa Cruz Biotechnology, Inc., Santa Cruz, Calif.), followed by visualization by ECL Western blotting.

[3] = target: T3, delta PKC/annexin V interaction (Cricetulus griseus, UniProt A0A8C2N0P5); experiment: Cross-linking co-immunoprecipitation of annexin V and delta PKC in CHO cells; format: cell-based
T3 construct: endogenous in cells; host or cells: CHO cells
T3 sequence (A0A8C2N0P5 1-676): as the sequence (A0A8C2N0P5 1-676) above
T3 sequence (G3I5A4 1-321 partner): as the sequence (G3I5A4 1-321) above
Method: A similar study was conducted to further evaluate the in vitro, intracellular interactions of delta PKC and annexin V. Cellular interactions of delta PKC/annexin V interaction in CHO cells were stabilized with a cross-linking agent, after stimulation with 10 nM PMA. The complexes formed with delta PKC were then immuno-precipitated and tested for the presence of annexin V. The SDS-PAGE gel is shown in FIG. 6A and a corresponding graph quantifying percent association of annexin V and delta PKC as a function of time is shown in FIG. 6B. […] The interaction is relatively short-lived, and the proteins disassociated after 1 minute of stimulation.
The effect of JTV-519, an activator of delta PKC, on the association of annexin V and delta PKC was also evaluated in this study. Cells were treated with JTV-519, and the association of annexin V and delta PKC was examined using the co-immunoprecipitation procedure described above. […] PMA caused the disassociation of the JTV-induced complex at 30 seconds, the time of maximal PMA-induced association. […] Whereas the cytosolic fraction of the cells contained a steady low level of the complex, the majority of the complex was found in the particulate fraction of the cells, and disappearance from the particulate fraction followed the same time-course as observed in whole cell lysates (compare FIG. 6D bottom panel with FIG. 6B).

isolated rat hearts = experiment: Ex vivo ischemia/reperfusion in isolated rat hearts; conditions: administered after ischemia during the initial 10 minutes of reperfusion
Method: The physiologic impact of disruption of the delta PKC-annexin V complex was evaluated in an ex vivo ischemia/reperfusion study using the annexin V peptide, TAT-AnxV, and its mutant, TAT-AnxV(R→E). As described in Example 7, isolated rat hearts were treated with TAT-AnxV or TAT-AnxV(R→E) for 10 minutes prior to induction of an ischemic episode. The ischemic episode lasted for 30 minutes, at which time flow to the heart was returned for 60 minutes (reperfusion). After the reperfusion period, cardiac effluent was collected and analyzed for creatine phosphokinase (CPK). The hearts were stained and visually inspected for live and dead tissue. Infarct size was measured by taking the average of the dead (white) tissue on both sides of the tissue slice.
A similar study was conducted, except rather than pretreating the isolated hearts with the annexin V peptide, the peptide was administered after the ischemic event and during the initial 10 minutes of the reperfusion period. Hearts were similarly treated with the mutant peptide, TAT-AnxV(R→E).
Rats were anesthetized and their hearts were rapidly removed and cannulated via the aorta for retrograde perfusion (Colbert, M. et al., J. Clin. Invest., 100:1958 (1997)). The hearts were left untreated, or were pretreated with the annexin V peptide, conjugated to TAT, (TAT-AnxV, SEQ ID NO:29) or with its mutant, TAT-AnxV(R→E) (SEQ ID NO:31), for 10 minutes prior to a 30 minutes of ischemia. Ischemia was induced by interrupting flow for 30 minutes and then reestablishing flow for 60 minutes (reperfusion). Cardiac effluent was collected for 15 minutes after reperfusion and assayed for creatine phosphokinase (CPK) using a Sigma kit. Hearts were stained with 2,3,5-triphenyltetrazolium chloride ([…]) to visualize live tissue (red) and dead tissue (white), and infarct size was measured by taking the average of the white area on both sides of the tissue slice (n=3, p<0.05). Results are shown in FIGS. 9A-9B and FIGS. 10A-10B.

delta PKC = delta PKC (Rattus norvegicus, UniProt P09215); experiment: ELISA of annexin V peptide variants fused to alkaline phosphatase on immobilized delta PKC; format: binding; set-up: key to Binding: +++: Relative binding is shown in Table 1 by “+” and “−” indicators; ++: Relative binding is shown in Table 1 by “+” and “−” indicators; Relative binding is shown in Table 1 by “+” and “−” indicators; Relative binding is shown in Table 1 by “+” and “−” indicators; −−−: Relative binding is shown in Table 1 by “+” and “−” indicators; conditions: Table 1; for Binding: relative binding of peptide-alkaline phosphatase fusion to immobilized delta PKC
delta PKC, sequence (P09215 with tags, fused parts or gaps with the stated changes limits assumed): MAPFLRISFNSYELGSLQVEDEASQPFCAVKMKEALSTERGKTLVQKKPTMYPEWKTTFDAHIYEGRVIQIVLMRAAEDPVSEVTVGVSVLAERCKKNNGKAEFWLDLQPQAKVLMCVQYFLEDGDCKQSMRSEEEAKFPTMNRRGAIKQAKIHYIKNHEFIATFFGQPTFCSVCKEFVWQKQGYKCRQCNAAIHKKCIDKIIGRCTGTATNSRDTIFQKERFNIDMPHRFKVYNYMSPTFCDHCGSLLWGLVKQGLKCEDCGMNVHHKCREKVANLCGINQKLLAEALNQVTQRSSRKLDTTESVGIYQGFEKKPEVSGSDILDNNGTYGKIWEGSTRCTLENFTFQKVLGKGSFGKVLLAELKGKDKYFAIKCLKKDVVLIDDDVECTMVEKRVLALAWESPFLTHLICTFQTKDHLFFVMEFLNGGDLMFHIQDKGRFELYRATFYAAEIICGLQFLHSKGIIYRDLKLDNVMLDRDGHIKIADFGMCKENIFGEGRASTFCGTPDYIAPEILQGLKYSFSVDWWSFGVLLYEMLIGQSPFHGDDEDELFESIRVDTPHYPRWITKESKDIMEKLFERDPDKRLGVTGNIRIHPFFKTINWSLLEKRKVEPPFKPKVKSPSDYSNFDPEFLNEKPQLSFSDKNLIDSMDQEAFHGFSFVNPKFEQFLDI
Method: Binding of the annexin V peptide (SEQ ID NO: 1) and of variants of the peptide to delta PKC was examined using an ELISA protocol, detailed in Example 6. Delta PKC (SEQ ID NO:3) was immobilized in the wells of a microtiter plate and then incubated with the annexin V peptide conjugated to alkaline phosphatase or with variants of the annexin V peptide, also conjugated to alkaline phosphatase.
Recombinant delta PKC protein (SEQ ID NO:3) was bound to a Falcon plate for 1 hour at room temperature in carbonate buffer pH 9.6. A 1:10-1:100 dilution of PKC enzyme from glycerol stock or 100 μg was prepared. β-mercaptoethanol at 1 μL/mL was added into the PKC. Each well contained approximately 100 μL of PKC; some wells without PKC were present to correct for non-specific binding.
Next, all wells were blocked with 200 μL of super block or 0.5% milk in carbonate buffer. Blocking was done twice, for 5 minutes each time.
Without washing the wells, 100 μL of a peptide fused to alkaline phosphatase protein (i.e., peptide-alkaline phosphatase fusion) was added to the wells, and incubated for 30 minutes at 37° C. The wells were then washed three times, for 2 minutes each time, with TBS/Tween (0.1%). The wells were allowed to develop overnight before reading absorbance at 405 nm.

[4] = cardiac myocytes stimulated with the agent, FIG. 5

O=CC[C@@H](O)[C@H](O)[C@H](O)CO [2-deoxyglucose]
disassociation of the delta PKC-annexin V complex [1]: substantial levels of the complex even after 5 minutes

OO [H2O2, hydrogen peroxide]
interaction of annexin V and delta PKC [2, 4]: stimulated delta PKC to a greater extent than exposure for 2 minutes

CCCCCCCCCCCCCC(=O)O[C@@H]1[C@@H](C)[C@@]2(O)[C@@H](C=C(CO)C[C@]3(O)C(=O)C(C)=C[C@@H]23)[C@@H]2C(C)(C)[C@]12OC(C)=O [PMA, phorbol 12-myristate 13-acetate]
interaction of annexin V and delta PKC [2, 4]: Annexin V interacts with delta PKC early after stimulation
time of stimulation after which annexin V and delta PKC disassociated ([3]; 10 nM PMA, FIGS. 6A-6B): 1 min
time to induction of annexin V and delta PKC interaction ([3]; 10 nM PMA, FIGS. 6A-6B): ≤ 30 s
cellular localization of the delta PKC-annexin V complex ([3]; soluble versus particulate fraction, FIG. 6D): maximum complex accumulation in the particulate fraction

C=C1[C@@H](C)[C@H]2[C@H](Cc3ccccc3)NC(=O)[C@]23[C@H](OC(C)=O)/C=C/[C@@](C)(O)C(=O)[C@@H](C)C/C=C/[C@H]3[C@@H]1O [cytochalasin D]
disassociation of the delta PKC-annexin V complex [1]: did not affect the profile of disassociation

COC(=O)Nc1nc2ccc(C(=O)c3cccs3)cc2[nH]1 [nocodazole]
disassociation of the delta PKC-annexin V complex [1]: substantial levels of the complex even after 5 minutes

LQANRDPD (listed as Homo sapiens) [SEQ ID NO:1, peptide from annexin V, residues 157-164]
infarct size (isolated rat hearts; FIG. 10A): no cardioprotective effect was observed
creatine phosphokinase (CPK) released (isolated rat hearts; FIG. 10B): does not confer a cardioprotective effect

MAAAEDP (variant of SEQ ID NO1) [SEQ ID NO:17]
Binding (delta PKC): −

MEAAEDP (variant of SEQ ID NO1) [SEQ ID NO:15]
binding to delta PKC (delta PKC): bind to delta PKC
Binding (delta PKC): +

MQAARDP (variant of SEQ ID NO1) [SEQ ID NO:12]
binding to delta PKC (delta PKC): bind to delta PKC
Binding (delta PKC): +++

MRAAADP (variant of SEQ ID NO1) [SEQ ID NO:16]
Binding (delta PKC): −−−

MRAAEDP (variant of SEQ ID NO1) [SEQ ID NO:18]
Binding (delta PKC): ++

MRAAENP (variant of SEQ ID NO1) [SEQ ID NO:13]
binding to delta PKC (delta PKC): bind to delta PKC
Binding (delta PKC): +++

MRAAQDP (variant of SEQ ID NO1) [SEQ ID NO:14]
binding to delta PKC (delta PKC): bind to delta PKC
Binding (delta PKC): ++

delta V1-1 peptide: amino acid sequence from the first variable region of delta PKC (residues 8-17); peptide inhibitor of delta PKC (SFNSYELGS; listed as Rattus norvegicus)
interaction of annexin V and delta PKC ([2]; cardiac myocytes pre-treated with the peptide for 20 minutes, then JTV-519 for 20 minutes, FIG. 5 Lane 10): blocked
